{"source": "patent US20250346659A1", "about": "(ELASMOGEN, published 2025)", "key": {"[1]": {"target": "T1, human Tumour Necrosis Factor alpha (human, UniProt P01375 77-233)", "T1 construct": "Amine-coupled to the chip for BIAcore, biotinylated on streptavidin sensors for Octet, coated at 1 µg/ml for ELISA; also called hTNFα; rhTNFα", "T1 sequence (P01375 77-233 limits assumed)": "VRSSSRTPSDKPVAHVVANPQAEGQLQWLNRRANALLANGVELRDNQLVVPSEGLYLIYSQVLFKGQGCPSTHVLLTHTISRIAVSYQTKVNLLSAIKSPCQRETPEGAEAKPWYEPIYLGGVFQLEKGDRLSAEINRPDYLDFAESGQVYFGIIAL", "experiment": "binding ELISA on TNFα (Anti-TNF NAR Dimers Binding ELISA, post dialysis), absorbance at 450 nm"}, "human serum albumin": {"target": "T2, human serum albumin (human, UniProt P02768 25-609)", "T2 construct": "also called HSA", "experiment": "binding ELISA on human serum albumin (HSA), OD 450"}, "[2]": {"target": "T1, human Tumour Necrosis Factor alpha", "experiment": "binding ELISA on human TNF-alpha, OD 450"}, "[3]": {"target": "T1, human Tumour Necrosis Factor alpha", "experiment": "kinetics on hTNFα; instrument (BIAcore T200 or Octet) not stated for this column"}, "human ICOS ligand": {"target": "T3, human ICOS ligand (human, UniProt O75144 19-258, limits assumed)", "T3 construct": "also called hICOSL", "T3 sequence (looked up)": "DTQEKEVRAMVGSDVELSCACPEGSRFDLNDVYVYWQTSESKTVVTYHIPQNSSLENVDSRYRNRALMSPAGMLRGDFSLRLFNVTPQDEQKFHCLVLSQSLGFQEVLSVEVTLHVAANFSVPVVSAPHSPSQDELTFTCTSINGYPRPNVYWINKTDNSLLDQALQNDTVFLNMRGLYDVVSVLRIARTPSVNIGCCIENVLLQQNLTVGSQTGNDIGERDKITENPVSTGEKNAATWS", "experiment": "hICOSL neutralisation assay (lower left panel): blocking of hICOSL binding to its CHO-expressed receptor, absorbance at 450 nm"}, "mouse ICOS ligand": {"target": "T4, mouse ICOS ligand (mouse, UniProt Q9JHJ8 47-279, limits assumed)", "T4 construct": "it may be the same Fc chimera as m48; also called mICOSL", "T4 sequence (looked up)": "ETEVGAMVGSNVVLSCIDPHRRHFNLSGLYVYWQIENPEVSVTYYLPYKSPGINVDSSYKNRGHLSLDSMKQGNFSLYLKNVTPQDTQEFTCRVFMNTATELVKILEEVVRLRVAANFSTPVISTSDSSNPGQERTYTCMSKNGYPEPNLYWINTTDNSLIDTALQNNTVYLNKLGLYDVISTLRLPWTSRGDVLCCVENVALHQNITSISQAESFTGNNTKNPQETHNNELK", "experiment": "mICOSL neutralisation assay (lower right panel): blocking of mICOSL binding to its CHO-expressed receptor, absorbance at 450 nm"}, "[4]": {"target": "T1, human Tumour Necrosis Factor alpha", "experiment": "BLI, Octet RED96, biotinylated hTNF-α on streptavidin sensors, top concentration 1 µM"}, "[5]": {"target": "T1, human Tumour Necrosis Factor alpha", "experiment": "binding ELISA on 1 µg/ml hTNF-α, absorbance at 450 nm"}, "Rabbit TNFα": {"target": "T5, Rabbit TNFα (rabbit, UniProt P04924 80-235, limits assumed)", "T5 sequence (looked up)": "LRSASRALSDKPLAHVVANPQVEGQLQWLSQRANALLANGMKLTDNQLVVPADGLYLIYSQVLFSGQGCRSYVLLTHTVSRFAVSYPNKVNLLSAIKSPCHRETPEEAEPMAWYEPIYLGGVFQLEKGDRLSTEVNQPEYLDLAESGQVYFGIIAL", "experiment": "cross-reactivity binding, B of B/N; - denotes no binding/neutralisation activity observed"}, "Rat TNFα": {"target": "T6, Rat TNFα (rat, UniProt P16599 80-235)", "T6 sequence (looked up)": "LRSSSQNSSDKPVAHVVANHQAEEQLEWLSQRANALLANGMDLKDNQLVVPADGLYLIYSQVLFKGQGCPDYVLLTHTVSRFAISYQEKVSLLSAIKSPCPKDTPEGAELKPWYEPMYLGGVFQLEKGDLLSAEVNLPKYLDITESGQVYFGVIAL", "experiment": "cross-reactivity binding, B of B/N; - denotes no binding/neutralisation activity observed"}, "Human TNF-β": {"target": "T7, Human TNF-β (human, UniProt P01374 35-205)", "T7 construct": "also called human TNFB", "T7 sequence (looked up)": "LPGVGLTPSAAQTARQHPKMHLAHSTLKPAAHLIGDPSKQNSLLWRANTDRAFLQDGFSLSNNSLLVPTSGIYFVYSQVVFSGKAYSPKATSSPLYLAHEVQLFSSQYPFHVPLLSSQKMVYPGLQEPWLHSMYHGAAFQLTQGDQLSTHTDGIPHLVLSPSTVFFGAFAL", "experiment": "cross-reactivity binding, B of B/N; - denotes no binding/neutralisation activity observed"}, "Pig TNFα": {"target": "Pig TNFα (pig, UniProt P23563 77-232)", "sequence (P23563 77-232 limits assumed)": "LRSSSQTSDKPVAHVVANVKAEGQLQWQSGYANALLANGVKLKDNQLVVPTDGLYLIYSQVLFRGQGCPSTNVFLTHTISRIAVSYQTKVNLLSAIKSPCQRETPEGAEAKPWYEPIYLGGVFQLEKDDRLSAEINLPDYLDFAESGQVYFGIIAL", "experiment": "cross-reactivity binding, B of B/N; - denotes no binding/neutralisation activity observed"}, "Mouse TNF-alpha": {"target": "T8, Mouse TNF-alpha (mouse, UniProt P06804 80-235)", "T8 construct": "also called mouse TNFα", "T8 sequence (looked up)": "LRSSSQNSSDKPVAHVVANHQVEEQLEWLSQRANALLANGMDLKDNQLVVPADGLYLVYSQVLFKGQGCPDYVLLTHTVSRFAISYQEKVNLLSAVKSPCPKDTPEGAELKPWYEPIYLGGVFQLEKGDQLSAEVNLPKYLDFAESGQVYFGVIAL", "experiment": "cross-reactivity binding, B of B/N; - denotes no binding/neutralisation activity observed"}}}
{"binder": "TNF VNAR DIMER D1-D1 (VNAR) ARVDQTPQTITKETGESLTINCVLRDSHCATSSTYWYRKKSGSTNEESISKGGRYVETVNSGSKSFSLRINDLTVEDSGTYRCASECQYGLAEYDVYGGGTVVTVNGGGGSGGGGGSGAHSARVDQTPQTITKETGESLTINCVLRDSHCATSSTYWYRKKSGSTNEESISKGGRYVETVNSGSKSFSLRINDLTVEDSGTYRCASECQYGLAEYDVYGGGTVVTVNAAAHHHHHHGAAESKLISEEDL", "values": [{"measurement": "EC50 (read off the curve)", "setting": "[1]", "result": "~0.009", "unit": "µg/mL"}]}
{"binder": "TNF S17-Quad-X™ (Fc fusion, S17, mouse IgG2a Fc and S17 in one chain; also called S17-Fc-S17; S17-Fc-S17 (Quad-X™)) ASVNQTPRTATKETGESLTINCVLTDTHAKVFTTSWFRKNPGTTDWERMSIGGRYVESVNKGAKSFSLRIKDLTVADSATYICRAGGYLSQPRVYWDVYGAGTVLTVNGGGGSGGGGRTEPRGPTIKPCPPCKCPAPNLLGGPSVFIFPPKIKDVLMISLSPIVTCVVVDVSEDDPDVQISWFVNNVEVHTAQTQTHREDYNSTLRVVSALPIQHQDWMSGKEFKCKVNNKDLPAPIERTISKPKGSVRAPQVYVLPPPEEEMTKKQVTLTCMVTDFMPEDIYVEWTNNGKTELNYKNTEPVLDSDGSYFMYSKLRVEKKNWVERNSYSCSVVHEGLHNHHTTKSFSRTPGKGGGGSGGGGSGGGGSGGGGSGAHSASVNQTPRTATKETGESLTINCVLTDTHAKVFTTSWFRKNPGTTDWERMSIGGRYVESVNKGAKSFSLRIKDLTVADSATYICRAGGYLSQPRVYWDVYGAGTVLTVN", "values": [{"measurement": "binding result", "setting": "human serum albumin", "result": "no binding (tested: 5 µg/ml)"}, {"measurement": "binding result", "setting": "[2]", "result": "no binding (tested: 5 µg/ml)"}]}
{"binder": "TNF VNAR D1-BA11-B4 (VNAR, Tandem VNAR trimer with anti-HSA BA11 in the middle, His and Myc tags) ARVDQTPQTITKETGESLTINCVLRDSHCATSSTYWYRKKSGSTNEESISKGGRYVETVNSGSKSFSLRINDLTVEDSGTYRCASECQYGLAEYDVYGGGTVVTVNGGGGSGGGGSGGGGSGGGGSGAHSTRVDQSPSSLSASVGDRVTITCVLTDTSYPLYSTYWYRKNPGSSNKEQISISGRYSESVNKGTKSFTLTISSLQPEDSATYYCRAMSTNIWTGDGAGTKVEIKGGGGSGGGGSGGGGSGGGGSGAHSARVDQTPQTITKETGESLTINCVLRDSNCALSSMYWYRKKSGSTNEESISKGGRYVETVNSGSKSFSLRINDLTVEDSGTYRCKVYIPCIDELVYMISGGTSGPIHDVYGGGTVVTVNHHHHHHHEQKLISEEDL", "values": [{"measurement": "koff", "setting": "[3]", "result": "~0.0006", "unit": "s⁻¹"}]}
{"binder": "VNAR-TNFR1 Fc bi-functional construct, Format 4: anti-hICOSL VNAR (2D4) (Fc fusion) TRVDQTPRTATKETGESLTINCVLTDTDYGLFSTSWFRKNPGTTDWERMSIGGRYVESVNKGAKSFSLRIKDLTVADSATYYCKAFTWPWEWPDRWFRPWYDGAGTVLTVN", "values": [{"measurement": "IC50 (read off the curve)", "setting": "human ICOS ligand", "result": "~0.4", "unit": "µg/mL"}]}
{"binder": "VNAR-TNFR1 Fc bi-functional construct, Format 2: anti-mICOSL VNAR (CC3) (Fc fusion) TRVDQTPRTATKETGESLTINCVLTDTEYGLFSTSWFRKNPGTTDWERMSIGGRYVESVNKGAKSFSLRIKDLTVADSATYYCKALGWWPPAFPHWYDGAGTVLTVN", "values": [{"measurement": "IC50 (read off the curve)", "setting": "mouse ICOS ligand", "result": "~0.2", "unit": "µg/mL"}]}
{"binder": "BB10 (VNAR) VNAR: TRVDQSPSSLSASVGDRVTITCVLTDTSYPLYSTYWYRKNPGSSNKEQISISGRYSESVNKGTKSFTLTISSLQPEDFATYYCRAMGTNFWTGDGAGTKVEIK", "values": [{"measurement": "Kd", "setting": "[4]", "result": "> 1", "unit": "µM"}]}
{"binder": "SoloMER™ VNAR D1-v4 (VNAR, Humanised D1 with His tag) VNAR: ARVDQSPSSLSASVGDRVTITCVLRDSHCATSSTYWYRKKPGSTNEESISKGGRFSGSGSSGSKSFTLTISSLQPEDFATYYCASECQYGLAEYDVFGQGTKVEIKH", "values": [{"measurement": "EC50 (read off the curve)", "setting": "[5]", "result": "~0.1", "unit": "µg/mL"}]}
{"binder": "TNF VNAR D1 (VNAR, Nurse shark VNAR single domain; also called VNAR D1 (wt); VNAR anti-hTNFa-D1) VNAR: ARVDQTPQTITKETGESLTINCVLRDSHCATSSTYWYRKKSGSTNEESISKGGRYVETVNSGSKSFSLRINDLTVEDSGTYRCASECQYGLAEYDVYGGGTVVTVNA", "values": [{"measurement": "binding result", "setting": "Rabbit TNFα", "result": "no binding"}, {"measurement": "binding result", "setting": "Rat TNFα", "result": "no binding"}, {"measurement": "binding result", "setting": "Human TNF-β", "result": "no binding"}, {"measurement": "binding result", "setting": "Pig TNFα", "result": "no binding"}, {"measurement": "binding result", "setting": "Mouse TNF-alpha", "result": "no binding"}]}
